Results published in the supplement of paper PMC9170038.

System: MS2 coat protein
Assay: apparent KD of MS2 coat protein; designed switch direction (-1 OFF switch, 1 ON switch): 1; higher = weaker reporter binding
Outline: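 RNA switches sharing common flanks were transcribed by stalled E. coli RNA polymerase on Illumina chips. A doubling series of SNAP-549-labelled MS2 coat protein, from 0.7 or 1.5 nM to 3 µM, was applied in Tris-HCl pH 7.5 buffer with KCl, MgCl2, BSA, DTT, tRNA and Tween-20. Each step lasted 0.8–1.5 h at the bottom of the series and 10–20 min at the top. Normalised cluster fluorescence was curve-fitted, giving apparent KD as the per-design median over clusters.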

[1] = Eterna round: R95, input ligand: FMN 200 uM
[2] = Eterna round: R95, input ligand: microRNA oligo, concentration not stated
[3] = Eterna round: R95, input ligand: none
[4] = input ligand: microRNA oligo, concentration not stated

| Sequence | apparent KD of MS2 coat protein [1] | apparent KD of MS2 coat protein [2] | apparent KD of MS2 coat protein [3] | apparent KD of MS2 coat protein (input ligand: FMN 200 uM) | apparent KD of MS2 coat protein [4] | apparent KD of MS2 coat protein (input ligand: none) |
| --- | --- | --- | --- | --- | --- | --- |
| AUAAAACAUGAGGAUCACCCAUGUCAACAAAGUCGAGGAUAUGGGCAAAGAAAAGAAUAACCAGAAGGCGAAUAAU [salish99_ss1_r3_055] (puzzle: Same State 1) | 51.5 nM | 315 nM | 316 nM |  |  |  |
| AACAAUCUAUCUGAGGAUAUCAUGAAAAAAACAUGAGGAUCACCCAUGUGCAGGAAAACUGCAUAUGAGAAGGCAGAUAGAUUGA [salish99_SS2_r3_001] (puzzle: Same State 2) | 20.6 nM | 484 nM | 741 nM |  |  |  |
| CAGAGCCCAUGGGCCUGACAUGAGGAUCACCCAUGUGGCUUUGAGGAUAUAAGCGGAAACAGCGCUUAGAAGGCGAAGCCUAAC [Rearisve] (Eterna round: R96, puzzle: Same State NG 3) |  |  |  | 157 nM | 14.1 nM | 41.9 nM |
| CUUGAUACACAUGAGGAUCACCCAUGUAUCAAGCUUUUUGCUCGUGUUAUUAUUUCCUUUAUUAGGAAUAUUAGGAA [rhiju-sequester-tail] (puzzle: Sensor for hsa-mir-208a version 2) | 24.9 nM | 14.4 nM | 23.7 nM |  |  |  |
| AACAAUCUAUCUGAGGAUAUCAUGAAAUAAACAUGAGGAUCACCCAUGUGCAGGAAAACUGCUUAUGAGAAGGCAGAUAGAUUGA [salish99_ss2_r3_047] (puzzle: Same State 2) | 10.3 nM | 12.6 nM | 12.2 nM |  |  |  |
| GUGCUCGUGUGAGGAUAUGCUUCCGGGUCGGCUGCAGAAGGUACUAUUAUACAUGAGGAUCACCCAUGUCGCUUUUCUCCGGUG [salish99_SSNG1_r04_917] (Eterna round: R96, puzzle: Same State NG 1) |  |  |  | 48.2 nM | 29.2 nM | 38.4 nM |
| GGAAUAUUUACAGGAUAUCAUUUGUAAAUUCGAUGAGAAGGGUAGAUGUCUUACACGACUUGUUACAUGAGGAUCACCCAUGUU [SameState NG1 #8] (Eterna round: R96, puzzle: Same State NG 1) |  |  |  |  | 34 nM |  |
| GGAGCCGGCACUGAGGAUAUUCAUAAUAAAACAUGAGGAUCACCCAUGUAGGCCAGAAGGCCUUGGGAGAAGGCAGGUCGGCUCA [Mat - Same State 2 - Mod of UCT - D66] (puzzle: Same State 2) | 18.3 nM | 153 nM | 217 nM |  |  |  |
| UUUAGUGGCGGGCAGGAUAUGUAUUAAAAUACAUGAGGAUCACCCAUGUGCGGGUAUAACACCCGACAGAAGGGCCAAUCGCUAC [Laonerce - 7] (puzzle: Same State 2) | 20.9 nM | 275 nM | 397 nM |  |  |  |
| AGUGGAGCCUGAGCUCCACAAAAGCAUGUACAUGAGGAUCACCCAUGUCAUGUACAAGCUUUUUGCUCGUCUUAAAA [Mat - hsa-mir-208a - Mod of JL - D18] (Eterna round: R96, puzzle: Sensor for hsa-mir-208a) |  |  |  | 552 nM | 14 nM | 502 nM |
| GCUUGCCGCACAGGAUAUGGGUGCCUGUACAUGAGGAUCACCCAUGUUAAGGGACGGAUUACGAACCAGAAGGGUGAGGCGGGC [Lereatle] (Eterna round: R96, puzzle: Same State NG 2) |  |  |  | 59.4 nM | 119 nM | 473 nM |
| ACGUGGCUGCCGCAGGAUAUACCCUGUUCCACAUGAGGAUCACCCAUGUUUACGAACUAUGAGAGGUAGAAGGGUGGAUGUCAUU [Beenvean] (puzzle: Same State 2) |  | 23.7 nM |  |  |  |  |
| GCUCGACGUAUUGUCUACAUGAGGAUCACCCAUGUAGGUGCGAAGGAUAUCUACGUGUUUCAUGUAGAGAAGGUCGUGUCGAGC [SameState NG3 #93] (Eterna round: R96, puzzle: Same State NG 3) |  |  |  | 36.3 nM | 35.1 nM | 46.4 nM |
| GCUCCAUUACGAGGAUAUGGGAAAGGAAGUGUACCAGAAGGCGUGAAAAGGUACAUGAGGAUCACCCAUGUACCCGGGAGCAAA [PowerStrip SSNG 1.11] (Eterna round: R96, puzzle: Same State NG 1) |  |  |  | 23.1 nM | 19.6 nM | 20.3 nM |
| GCGGAGAGGUAAGGAUAUCCAUGGAAAAAACAUGAGGAUCACCCAUGUAGGAAAAAAACUAGGAGGGAGAAGGUACCGGGACGC [AK SSNG2-V2-20] (Eterna round: R96, puzzle: Same State NG 2) |  |  |  | 21.7 nM | 23.4 nM | 29.8 nM |
| GCUCCGCAAUACUUUCACAUGAGGAUCACCCAUGUUCACGUUAAGGAUAUCUAUUGUGAGACAGUAGAGAAGGUAGCGAGCGAC [Eternabot solution 11] (Eterna round: R96, puzzle: Same State NG 3) |  |  |  | 25.7 nM | 15.2 nM | 24.2 nM |
| UGGUACAUGGGAGGAUAUGGGCAAGAGACAUGAGGAUCACCCAUGUUAUAAAAGCCGAGAGGCAUCUAGAAGGCCCAUGUACCU [JL SSNG1 3.90] (Eterna round: R96, puzzle: Same State NG 2) |  |  |  | 14.6 nM | 38.5 nM | 55.4 nM |
| GUACAGAUCACAGGAUAUCACGUCGAUUAGACGUGAGAAGGGUGAUCACACAUGAAUAUUAAUACAUGAGGAUCACCCAUGUAC [SSNG1/16-A2] (Eterna round: R96, puzzle: Same State NG 1) |  |  |  | 65.6 nM | 22.5 nM | 30.6 nM |
| GGUAGGUUACUACCAAACAUGAGGAUCACCCAUGUAAGUGGGAAGGAUAUGGUACCUAAAAGGUACCAGAAGGUCCAAUUAAUU [Mat - Same State NG 3 - JL Mod - D98] (Eterna round: R96, puzzle: Same State NG 3) |  |  |  | 188 nM | 436 nM | 584 nM |
| UAAAUAAUGUAAGGAUAUACAUGAGGAAUUCUCGUAGAAGGUACAUGACAUGAGGAUCACCCAUGUAUCGCUCAGAAGAGCGUA [Mat - Same State NG 1 - JL mod - D28] (Eterna round: R96, puzzle: Same State NG 1) |  |  |  | 1660 nM | 39.9 nM | 298 nM |
| AACAGUCGACGAGGAUAUGGACGGACAGGUUUGCCUGUGCGGCUCACAUGAGGAUCACCCAUGUUCUAGAAGGCGUCACUGUGA [Matidia] (Eterna round: R96, puzzle: Same State NG 2) |  |  |  | 15.5 nM | 79.2 nM | 80.5 nM |
| UUCGAGUAGCAAGGAUAUCUUAUUUAGAUUUUAAGAGAAGGUGCUUAUUAGAAACAUGAGGAUCACCCAUGUAUUACUUCUUAU [JR_SSNG1_Sub066] (Eterna round: R96, puzzle: Same State NG 1) |  |  |  | 14.1 nM | 13.8 nM | 20.1 nM |
| ACAUGAAAUACAGGAUAUUUUGUACCUACAUGUGACAUGAGGAUCACCCAUGUGGUAAGUAUAAGAGAGAAGGGUAAGAUAUGU [Equivalence 4 - Jieux - Same State NG 2] (Eterna round: R96, puzzle: Same State NG 2) |  |  |  | 50.1 nM | 43.8 nM | 66.4 nM |
| CGUAGGUAGCUGGAGGAUAUCCGAGUGGUAACAUGAGGAUCACCCAUGUGAUGUGAGGAACAUGAGGAGAAGGCUAGCUGCCUGC [JL-ss2-3.12 JL mod] (puzzle: Same State 2) | 23.1 nM | 37.5 nM | 38.2 nM |  |  |  |
| GCUCGAUGAUAGGCCUACAUGAGGAUCACCCAUGUAACUGGGCAGGAUAUCUAAAUGCAGAAUGUAGAGAAGGGCCCGUCGAGC [SameState NG3 #53] (Eterna round: R96, puzzle: Same State NG 3) |  |  |  | 220 nM | 86.8 nM | 230 nM |
| CGUAGGUGGCUGGAGGAUAUUCGAGUGGUAACAUGAGGAUCACCCAUGUGUCGCGCGGUACAUGAGGAGAAGGCUGGCGGCCUGC (puzzle: Same State 2) | 19.7 nM | 69.4 nM | 178 nM |  |  |  |
| UUGCUCGUGUAAGGAUAUGCAGCCGUUUCGGCUGCAGAAGGUACUAUAAUACAUGAGGAUCACCCAUGUCUCUAUUAUUUAGUG [salish99_SSNG1_r04_925] (Eterna round: R96, puzzle: Same State NG 1) |  |  |  | 43 nM | 38.3 nM | 49.4 nM |
